Measured values as given in US20200332015A1 (NAMAB THERAPEUTICS, published 2020).

T1: mouse Fc-tagged mouse CD137 (R&D Systems, cat. 937-4B-050) (mouse, UniProt P20334 24-187)
T1 construct: also called mouse CD137-Fc chimeric protein
T1 sequence (looked up): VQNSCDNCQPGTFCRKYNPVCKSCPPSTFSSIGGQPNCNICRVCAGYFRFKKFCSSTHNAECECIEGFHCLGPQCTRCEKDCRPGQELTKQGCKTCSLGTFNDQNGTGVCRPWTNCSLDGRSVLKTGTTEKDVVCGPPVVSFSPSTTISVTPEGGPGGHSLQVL


What was measured:
Test in all cases: SPR T200, antigen-Fc captured, molecule as analyte
[1] = biological target: human PDL1-Fc chimeric protein (human, UniProt Q9NZQ7 19-238, limits assumed)
Description: (§1) Affinity to PDL1 of the different species was determined by SPR measurements using a Biacore T200 device (GE Healthcare). An antibody specific for the Fc region of human IgGs was immobilized on a sensor chip (CM5 sensor chip, GE Healthcare) by amine-coupling. For all formats, with the exception of the Fc containing Morrison formats, PDL1-Fc chimeric protein from different species were captured by the immobilized antibody. Three-fold serial dilutions of the molecules specific for PDL1 (0.12-90 nM) were injected into the flow cells for three minutes and dissociation was monitored for 10 minutes. After each injection cycle, surfaces were regenerated with one injection of a 3 M MgCl₂ solution. The apparent dissociation (kd) and association (kₐ) rate constants and the apparent dissociation equilibrium constant (KD) were calculated using one-to-one Langmuir binding model. Affinity to CD137 of the different species was determined using the identical setup as for PDL1 with the exception that CD137-Fc chimeric proteins from different species were captured by the immobilized antibody.

[2] = biological target: T2, Fc tagged human CD137 (R&D Systems, cat. 838-4B-100) (human, UniProt Q07011 24-186)
T2 construct: also called CD137 Fc chimera; human CD137-Fc chimeric protein
Description: as §1

[3] = biological target: T1, mouse Fc-tagged mouse CD137 (R&D …)
Description: as §1

Row | Binder | Kd [1] | koff [1] | kon [1] | Kd [2] | koff [2] | kon [2] | Kd [3] | koff [3] | kon [3]
1 | PRO966 (= PRO1052) (38_27_C05 sc01 scDb-i/33-03-G02 sc01 scDb-o/19-01-H04-sc03 scFv) (other, Trispecific scDb-scFv) DIQMTQSPSSLSASVGDRVTITCQASQSINDYLAWYQQKPGKAPKLLIYKASTLASGVPSRFSGSGSGTDFTLTISSLQPEDFATYYCQQGYIITDIDNVFGTGTKVTVLGGGGGSQVQLQESGPGLVKPSETLSLTCKVSGFSFNNDYDMCWIRQPPGKGLEWIGCIDTGDGSTYYASWAKGRVTISVDSSKNQFSLKLSSVTAADTAVYYCAREAASSSGYGMGYFDLWGQGTLVTVSSGGGGSGGGGSGGGGSGGGGSIQMTQSPSSLSASVGDRVTITCQSSQSVYDNNWLAWYQQKPGKAPKLLIYRASNLASGVPSRFSGSGSGTDFTLTISSLQPEDFATYYCQGTYLSSNWYWAFGTGTKVTVLGGGGGSQVQLQESGPGLVKPSETLSLTCKVSGFSFSSGYDMCWIRQPPGKGLEWIGCVVAGSVDITYYASWAKGRVTISVDSSKNQFSLKLSSVTAADTAVYYCARKDAYSDAFNLWGQGTLVTVSSGGGGSGGGGSIQMTQSPSSLSASVGDRVTITCQSSESVYSNNQLSWYQQKPGQPPKLLIYDASDLASGVPSRFSGSGSGTDFTLTISSLQPEDFATYYCAGGFSSSSDTAFGGGTKLTVLGGGGGSGGGGSGGGGSGGGGSEVQLVESGGGLVQPGGSLRLSCAASGFSLSSNAMGWVRQAPGKGLEYIGIISVGGFTYYASWAKGRFTISRDNSKNTVYLQMNSLRAEDTATYFCARDRHGGDSSGAFYLWGQGTLVTVSS | 0.083 nM | 0.00014 s⁻¹ | 1.6e+06 M⁻¹ s⁻¹ | 2.2 nM | 0.0022 s⁻¹ | 1e+06 M⁻¹ s⁻¹ |  |  | 
2 | PRO1125 (38-02-A04 scDb-i/33_03_G02 sc02 IF scDb-o) (bispecific antibody, scDb) DIQMTQSPSSLSASVGDRVTITCQASQSINDYLAWYQQKPGKSPKLLIYKASTLASGVPSRFSGSGSGTDFTLTISSLQPEDFATYYCQQGYIITDIDNVFGTGTKVTVLGGGGGSQVQLQESGPGLVKPSETLSLTCKVSGFSFSNSYWICWIRQPPGKGLEWIGCTFVGSSDSTYYANWAKGRVTISVDSSKNQFSLKLSSVTAADTAVYYCARHPSDAVYGYANNLWGQGTLVTVSSGGGGSGGGGSGGGGSGGGGSIQMTQSPSSLSASVGDRVTITCQASQSINNVLAWYQQKPGKAPKLLIYRASTLASGVPSRFSGSGSGTDFTLTISSLQPEDFATYYCQSSYGNYGDFGTGTKVTVLGGGGGSQVQLQESGPGLVKPSETLSLTCKVSGFSFSSGYDMCWVRQPPGKGLEWIACVVAGSVDITYYASWAKGRVTISVDSSKNQFSLKLSSVTAADTAVYFCARKDAYSDAFNLWGQGTLVTVSS | 0.067 nM | 0.00011 s⁻¹ | 1.7e+06 M⁻¹ s⁻¹ | 3.7 nM | 0.00075 s⁻¹ | 200000 M⁻¹ s⁻¹ | 510 nM | 0.27 s⁻¹ | 540000 M⁻¹ s⁻¹
3 | PRO1134 (38-02-A04 sc01 scDb-i/33_03_G02 sc07 GL VH3 scDb-o) (bispecific antibody, scDb) DIQMTQSPSSLSASVGDAVTITCQASQSINDYLAWYQQKPGKSPKLLIYKASTLASGVPSRFSGSGSGTDFTLTISSLQPEDFATYYCQQGYIITDIDNVFGTGTKVTVLGGGGGSQVQLQESGPGLVKPSETLSLTCKVSGFSFSNSYWICWIRQPPGKGLEWIGCTFVGSSDSTYYANWAKGRVTISVDSSKNQFSLKLSSVTAADTAVYYCARHPSDAVYGYANNLWGQGTLVTVSSGGGGSGGGGSGGGGSGGGGSIQMTQSPSSLSASVGDRVTITCQASQSINNVLAWYQQKPGKAPKLLIYRASTLASGVPSRFSGSGSGTDFTLTISSLQPEDFATYYCQSSYGNYGDFGTGTKVTVLGGGGGSEVQLVESGGGLVQPGGSLRLSCAASGFSFSSGYDMCWVRQAPGKGLEWVGCVVAGSVDITYYASWAKGRFTISRDNSKNTVYLQMNSLRAEDTATYYCARKDAYSDAFNLWGPGTLVTVSS | 0.028 nM | 7.6e-05 s⁻¹ | 2.8e+06 M⁻¹ s⁻¹ | 3.4 nM | 0.00084 s⁻¹ | 250000 M⁻¹ s⁻¹ | 420 nM | 0.19 s⁻¹ | 450000 M⁻¹ s⁻¹
